Target: T1, CD73-ND-P139A (human, UniProt P21589 27-317)
T1 construct: Alanine mutant of CD73-ND
T1 sequence: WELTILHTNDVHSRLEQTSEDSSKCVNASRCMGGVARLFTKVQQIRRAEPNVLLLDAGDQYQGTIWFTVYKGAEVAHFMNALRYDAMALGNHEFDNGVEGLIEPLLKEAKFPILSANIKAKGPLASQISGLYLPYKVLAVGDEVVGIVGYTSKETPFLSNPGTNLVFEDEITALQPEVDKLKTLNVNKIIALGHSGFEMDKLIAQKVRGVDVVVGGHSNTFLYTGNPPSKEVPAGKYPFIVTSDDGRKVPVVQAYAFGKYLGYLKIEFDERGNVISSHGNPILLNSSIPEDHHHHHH
Test: ELISA; decline multiple of EC50 against CD73-ND
Experimental: The ELISA plates were coated with SA protein diluted to 1.5 μg/mL in coating buffer (50 mM carbonate coating buffer, pH 9.6) and incubated overnight at 4° C. The supernatant was discarded, and the plates were washed three times with PBST. Then, 5% skimmed milk powder prepared with PBS was added for blocking and the plates were incubated for 2 h at 37° C. After washing the plates once with PBST, CD73-biotin protein (prepared by biotinylating CD73-His protein according to the EZ-Link NHS-Biotin Reagent instructions) was diluted to 0.5 μg/mL and added at 100 μL/well for incubation at room temperature for 1 h. The plates were washed three times with PBST, and the prepared murine-derived monoclonal antibodies against human CD73 were serially diluted with 1% BSA buffer prepared with PBST and added to the ELISA plates at 100 μl/well. The plates were incubated at 37° C. for 1 h. After washing the plates three times with PBST, HRP-labeled goat anti-mouse IgG secondary antibody was added and the plates were incubated for 30 min at 37° C. After washing the plates three times with PBST, the residual droplets were patted dry on absorbent paper as much as possible. Then, 100 μl of TMB color developing solution was added to each well, and the plates were incubated in the dark at room temperature for 5 min for color development. Subsequently, 50 μl of 2M H₂SO₄ stop solution was added to each well to terminate the substrate reaction. The OD values were read at 450 nm using a multimode microplate reader to analyze the binding ability of the tested antibodies to the target antigen human CD73-His.
Referring to the experimental method in Example 3, the affinity of 48A11-HuV33 for various mutant proteins of CD73-ND was determined. The SA protein was diluted to 1 μg/mL for coating the ELISA plates, and the biotinylated CD73 protein (CD73-biotin) was used at a concentration of 0.1 μg/mL.

B1: 48A11-HuV33 (antibody, human IgG4, V domains shown)
VH: QVQLVQSGAEVKKPGASVKVSCKASGYTFTSYWMHWVRQAPGQGLEWIGEINPSIGRTNYNEKFKSRVTLTRDTSTSTAYMELSSLRSEDTAVYYCARRVYGTMDYWGQGTLVTVSS
VL: DIQMTQSPSSLSASVGDRVTITCKASQDINSYLSWFQQKPGKSPKLLIYRANIWVDGVPSRFSGSGSGQDYTFTISSLQPEDIATYYCLQYDELYTFGQGTKVEIK
notes: Humanized
Ratio(EC50): 24.4 fold

From patent US20250066499A1 (SUNSHINE GUOJIAN PHARMACEUTICAL SHANGHAI, published 2025)
